Reference: article PMC8268110
Several values for one entry are separate records, joined by “and”; a condition that tells them apart may be missing. Equal values may be shown once.

Key:
[1] = target: Nrl1 (full length), BACTH fusion (S. pombe) (UniProt O42975); test: two-hybrid; bacterial two-hybrid (BACTH) in E. coli BTH101; full-length ORFs in pUT18C and pKT25, both combinations; X-gal/IPTG plates and β-galactosidase activity assay at 28 °C in Miller units; eight biological replicates
[2] = target: Nrl1 (full length), BACTH fusion (S. pombe) (UniProt O42975); test: two-hybrid; bacterial two-hybrid (BACTH) in E. coli BTH101; Nrl1 or its truncations in pUT18C, RNA-processing factors in pKT25; β-galactosidase activity assay at 28 °C in Miller units; eight biological replicates
[3] = target: Nrl1(C-term), C-terminal region (493–972 aa), BACTH fusion (S. pombe) (UniProt O42975); test: as above
[4] = target: Nrl1(N-term), N-terminal region (1–159 aa), BACTH fusion (S. pombe) (UniProt O42975); test: as above
[5] = target: Nrl1(N-term + NRDE-2), N-terminus with NRDE2 domain (1–492 aa), BACTH fusion (S. pombe) (UniProt O42975); test: as above

For Ctr1, BACTH fusion (natural protein), the β-galactosidase activity (Miller units) [1] was 977 Miller units and 1090 Miller units, the β-galactosidase activity (Miller units) [2] was 1080 Miller units and the β-galactosidase activity (Miller units) [3] was 708 Miller units.
For Mtl1, BACTH fusion (natural protein), the β-galactosidase activity (Miller units) [1] was 1440 Miller units and 1450 Miller units, the β-galactosidase activity (Miller units) [4] was 1510 Miller units and the β-galactosidase activity (Miller units) [2] was 1460 Miller units. The β-galactosidase activity (Miller units) [5] was 1560 Miller units.
With Ntr2, BACTH fusion (natural protein) the β-galactosidase activity (Miller units) [1] was 739 Miller units and 467 Miller units, the β-galactosidase activity (Miller units) [2] was 583 Miller units and the β-galactosidase activity (Miller units) [3] was 495 Miller units.
